This data set is described as follows: label from the status in PepcDB records.
With “AHKYKRAEVVQNALLELSHIATQVSSLEEFYLGVHHHLKQLISADNFFIATLDVNSGAISVPFFADEKDAHPSQLYPEQSLSTLLQQGLTGYVFRTGQTLLCDESKVDELVNAEEIVNLGSPCHLWLGVPIKHEDIVTAVLVVQTYDTNVSYGDIEVELMTFICHHITGVMERLKHQEQLEQAIQQ”, the protein production entry is given as “not failed”.

Turning to “MADIINNIVGGRYYILELIGRGGSAIVYKARDIHNGGIYALKKYITSDPANRKRLLEGMERELEVLKNCTHPVLPKIFDLIKIEDAFFLVMEYIDGIDLKKYVDEYGTLSTKMLIKVMEQVCSGFYYLHSLSPAIVYRDLKPANIILCKDGRIKLIDFGIAKRYRTDIDVDKLALGSKGFAAPEQFGDSKGKGLYNTDIRADIYGIGTTMYYLKTAKTYNSVPGSKSLYSFKDYFKTSHKLRKIIKKCTKNNPDLRYQSCIEILCSIKTLHIIGK”, the protein production result was “failed”.

In the case of “MKLGIGKIKDVLKSGAGKSTESGREEQKIEEIEPDRVEEATMTAKISEQESENTPDKEHLVPMNRTECKKTGLIFFPAFDWAISPTHPEREERLLYTRDQIFEEGLMDLPQIAEYKPRLAEFKDIARVHFCIPDIEAQATTPHLIAAGSCLVLADALMRGEVKNAFALVRPPGHHAMTVAHGNRGFCNINNEAILVEYLRKKYGIRRIAIVDTDVHHGDGTQEIFYNDPDILFISFHQDGRTLYPGSGFTNELGGPKALGRTINIPLPPGTPDEGILYVLDSLVMPILEDFKPELVLNSAGQDNHYTDPLANMRFSAQGYAKLNEKLGPDMAVLEGGYAIQSALPYVNTGIILAMAGLDYSCVMEPDFKPGMFVQAARDRQILEGVVATQLENWKNRNRLVEEEIAKHGDFYRRKKQIFYDTDMIQEVQEETIKMCPDCQGYVTIDSRAHRSINDTRIFGVSVPIYACNRCQAEAEEEYKKRLKSPEYEYVYLQDKKADEYRAYNMRTKQEIVY”, the protein production result is on record as “failed”.

Regarding “MNIGTFDRLLFAYSIGSHILIVLMSIGLSVILPVLEYIAIKYKDVYYDLLTRRVAKALVMFFAVGTASGAVMAVELIDLFPKFMTIIAVVGVLPFYYEIFAFFLETIMLVSYYYYWDVFKNRMHHWLLTFGVAGGTLASAVFITMINAWMNTPNGFNISYYEKTGKLIDVNPFITALTPSTGREVFHVVIVTAFAGLMVLGAFFAYQYLRAKTEEAKTLYMKGLKVTFPMNMFLIIMAGLSGTLEMSGLLTYQPEKYAALDLNPYPIARDAPEHLFGTIVEKNGHYYVLGGIKIPFVQSLLAGNGNLNTPVPGLSQFPTSTWPPLAVHDTFDLMVIGGTLLGLFLLSVLIAWILKKKPYESKGFMVAQILFAILTIPIYIGGWVTDEVGRQPWIIYNVMTVYQAANYSPSIIVPGYLIMAFYTILMPFSYWYAFRLMKQGDVKKEISSYKMPSTAHGR”, the protein production result is recorded as “failed”.

On to “MQIVGSVALMLWGIRLVRTGFIRAFGGSLRHYLGLAISGRLTSFGVGLAITVFLQSSTATALIISSFASKGLVQTPAALAVMLGADVGTSISAQILSFNLSWLAYAAILIGFFLHGRGGRFATRQIGRAIVGLGMVLLALSLIRMSSQPLREADGLAYVLSALEGEVLLTLFLMAVLTWLVHSSLAVVLLTASLASAGIVPTGTGLVMILGANIGGTIPPIIATLSTGPQSQHAALGNAGFKLLASLLVLPFLPWVGERLQSFGGDAQVLVNFHLTFNLLVATLFLPWVQTAAALLARVFPDTGAGAVEPVTKYLDKELITSPALALTSATRELYRVNERIEDSLALLSGGIAARDQVDVQGAQENRARVAAMLEEFKFYLTDITREEISESDSAKAMNLLLIATNLGHVSELVTNAVELTASTSHEQIRFSEAGTAELLEMLELIHQGIRLALSAALLGDAKVRKTLQKGRKELERMVDESRQAHFSRLAEGTLSSISTTSLHNELLRDFSRIYYHIYTASKIGGRDSSVMIRG”, for which the protein production entry is given as “failed”.

As to “MGVRLAVRCFVVDGVLIDTGAKSMENEFTSFFQQQDIDQVVITHFHEDHTGCAAFLQRSMGLPIYMNEPMIEYCRQKADYPLYRKIFWGKRDPFAAKPIGATFSSRNATWDVIPTPGHAIDHVVFLNRETGQLFSGDLYCQEKTKVILREEDIPTIIASLQHVLTYDFGDVFCAHAGYLPLEHHHHHH”, the protein production entry is listed as “failed”.

Consider “MTMSTTREIAFLIARILLGVILIAHGWDKFAITGLEGVTGFFDSLGIPAAGIAAIAAAVVELLGGILIILGVFTRIVAAFVAIDMLFAALFAHVSSGIFVTNNGWELTGAIGAGALLLIAVGAGAWSIDGVLAKRKA”, for which the protein production result was “failed”.

The values above are taken from a protein production outcome set (Wang et al. 2014).
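Also: failed if final PepcDB status was selected cloned or expressed and not failed if soluble or beyond.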
